Ends that are not written are not given here. * marks the point of attachment. Biotin = O=C1N[C@H]2[C@H](CS[C@H]2CCCCC(=O)*)N1
Key:
Test in all cases: peptide or protein array; E. coli proteome chip: purified His-tagged proteins printed in duplicate on Fullmoon slides, blocked with 1% BSA; 10 nM N-terminal biotinylated LfcinB with 1% BSA, room temperature, 1 h; detected with DyLight 649-labeled streptavidin, ratio to DyLight 549-labeled anti-His antibody; ProCAT normalisation, local cut-off; triplicate chips
Details in all cases: both partners purified
YfbO = biological target: T1, YfbO (E. coli K-12, UniProt P76485 1-140)
T1 construct: YfbO, E. coli K-12
T1 sequence (looked up): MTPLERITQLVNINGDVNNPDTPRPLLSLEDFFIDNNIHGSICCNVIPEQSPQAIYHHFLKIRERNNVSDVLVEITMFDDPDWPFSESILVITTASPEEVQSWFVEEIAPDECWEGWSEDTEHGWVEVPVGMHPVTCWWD

[1] = biological target: T2, ribonucleoside-diphosphate reductase 2, β subunit (E. coli K-12, UniProt P37146 1-319)
T2 construct: NrdF, ribonucleoside-diphosphate reductase 2, β subunit, E. coli K-12; no measurement of the oligomer here; also called NrdF

YhjC = biological target: T3, YhjC (E. coli K-12, UniProt P37641 1-299)
T3 construct: YhjC, E. coli K-12
T3 sequence (looked up): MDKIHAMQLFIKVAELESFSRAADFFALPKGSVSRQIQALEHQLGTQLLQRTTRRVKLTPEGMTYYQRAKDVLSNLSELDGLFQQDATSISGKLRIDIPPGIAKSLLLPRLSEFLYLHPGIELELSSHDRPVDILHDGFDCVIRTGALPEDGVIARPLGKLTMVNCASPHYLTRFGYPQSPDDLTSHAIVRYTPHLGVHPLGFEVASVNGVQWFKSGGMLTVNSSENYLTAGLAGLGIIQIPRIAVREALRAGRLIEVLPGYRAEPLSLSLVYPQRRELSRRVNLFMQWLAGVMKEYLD

HisA = biological target: T4, HisA (E. coli K-12, UniProt P10371 1-245)
T4 construct: HisA, E. coli K-12

AceK = biological target: T5, AceK (E. coli K-12, UniProt P11071 1-578)
T5 construct: AceK, E. coli K-12
T5 sequence (looked up): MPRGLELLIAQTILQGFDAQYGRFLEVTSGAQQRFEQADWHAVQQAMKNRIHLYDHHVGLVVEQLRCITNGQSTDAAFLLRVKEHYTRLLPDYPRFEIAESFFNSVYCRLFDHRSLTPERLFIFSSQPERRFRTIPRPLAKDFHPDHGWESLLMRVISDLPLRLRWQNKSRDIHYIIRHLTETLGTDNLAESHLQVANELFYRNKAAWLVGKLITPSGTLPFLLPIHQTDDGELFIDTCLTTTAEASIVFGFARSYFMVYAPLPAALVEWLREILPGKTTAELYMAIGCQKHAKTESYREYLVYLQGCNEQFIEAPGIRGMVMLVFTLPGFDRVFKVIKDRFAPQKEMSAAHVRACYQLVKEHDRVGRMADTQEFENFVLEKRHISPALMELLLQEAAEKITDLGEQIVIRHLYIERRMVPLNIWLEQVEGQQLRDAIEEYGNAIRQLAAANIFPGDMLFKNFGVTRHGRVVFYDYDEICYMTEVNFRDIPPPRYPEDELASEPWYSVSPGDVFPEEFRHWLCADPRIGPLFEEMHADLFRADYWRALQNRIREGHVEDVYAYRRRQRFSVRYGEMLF

DinG = biological target: T6, DinG (E. coli K-12, UniProt P27296 1-716)
T6 construct: DinG, E. coli K-12
T6 sequence (looked up): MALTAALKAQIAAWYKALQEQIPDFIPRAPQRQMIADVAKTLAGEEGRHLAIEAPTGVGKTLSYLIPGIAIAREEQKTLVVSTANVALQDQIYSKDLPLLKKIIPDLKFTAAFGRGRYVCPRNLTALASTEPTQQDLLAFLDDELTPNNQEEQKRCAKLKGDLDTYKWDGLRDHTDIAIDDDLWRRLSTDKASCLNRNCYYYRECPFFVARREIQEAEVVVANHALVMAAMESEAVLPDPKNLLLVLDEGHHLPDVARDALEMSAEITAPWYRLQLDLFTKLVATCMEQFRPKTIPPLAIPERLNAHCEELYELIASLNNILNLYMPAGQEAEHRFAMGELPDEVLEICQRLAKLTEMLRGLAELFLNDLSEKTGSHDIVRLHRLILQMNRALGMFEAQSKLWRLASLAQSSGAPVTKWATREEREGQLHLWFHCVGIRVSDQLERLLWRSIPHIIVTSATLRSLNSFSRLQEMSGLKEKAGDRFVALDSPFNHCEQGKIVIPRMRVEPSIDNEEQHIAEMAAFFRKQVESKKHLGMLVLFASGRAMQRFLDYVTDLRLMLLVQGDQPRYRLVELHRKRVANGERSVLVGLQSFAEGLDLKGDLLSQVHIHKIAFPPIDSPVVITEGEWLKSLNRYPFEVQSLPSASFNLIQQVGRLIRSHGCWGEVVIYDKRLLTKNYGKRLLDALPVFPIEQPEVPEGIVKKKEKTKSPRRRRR

Measured: binding result

T2 sequence (P37146 whole entry): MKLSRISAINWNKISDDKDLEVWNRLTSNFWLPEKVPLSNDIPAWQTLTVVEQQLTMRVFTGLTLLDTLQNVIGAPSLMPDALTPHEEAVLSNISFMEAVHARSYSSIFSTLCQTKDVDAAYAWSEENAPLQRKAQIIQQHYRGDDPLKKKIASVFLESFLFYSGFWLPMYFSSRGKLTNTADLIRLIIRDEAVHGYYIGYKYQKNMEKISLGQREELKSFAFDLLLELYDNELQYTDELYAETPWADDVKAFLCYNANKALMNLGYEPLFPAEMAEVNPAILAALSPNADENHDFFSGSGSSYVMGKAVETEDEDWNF
T4 sequence (P10371 whole entry): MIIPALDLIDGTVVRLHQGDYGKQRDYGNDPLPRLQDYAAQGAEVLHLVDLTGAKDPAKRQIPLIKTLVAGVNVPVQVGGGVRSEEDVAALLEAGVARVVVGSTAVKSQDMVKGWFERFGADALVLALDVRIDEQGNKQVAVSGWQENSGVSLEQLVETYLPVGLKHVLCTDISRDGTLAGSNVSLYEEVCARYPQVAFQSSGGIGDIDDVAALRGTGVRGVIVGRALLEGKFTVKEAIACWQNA

B1: N-terminal biotinylated Lactoferricin B (peptide, UniProt P24627 36-60, looked up)
peptide: Biotin-FKCRRWQWRMKKLGAPSITCVRRAF
modifications: ends and bridges not checked
notes: lactoferricin B (LfcinB), cationic antimicrobial peptide of 25 amino acids; also called biotinylated LfcinB; biotin-labeled LfcinB; source: bought: Kelowna Inc
binds: all assays above
